Assay results published in US6471689B1, “Implantable drug delivery catheter system with capillary interface” (Thomas Jefferson University, priority 1999, dated 2002).

Experiment: Human insulin infusion via implanted drug delivery catheter system (DDCS) in rats, plasma insulin and glucose versus time
Format: in vivo
Details: for Time at which blood insulin levels peaked post infusion: human insulin 10 milliU/kg/min, 20 weeks post implantation
Description: The devices were implanted in 4 rats weighing ˜350 gm. Each animal was implanted with 2 devices: a mesenteric DDCS, implanted within the loose connective tissue of the bowel mesentery, and a subcutaneous DDCS implanted in the dorsal subcutaneous loose connective tissue. Catheters were primed with saline and proximal ends sealed. Catheters were then coiled and secured within the abdominal and subcutaneous spaces, respectively. There were no perioperative surgical complications and all 4 animals increased to a mean weight of 592±83 gm by 20 weeks.
The proximal portion of the catheters was exteriorized at 20-weeks post implantation and human insulin infusions were started at 10 milliU/kg/min with infusion rates of 60 μL/hr after careful determination of catheter dead space volume. Two animals were randomly assigned to receive insulin via mesenteric DDCS and two animals received infusions via subcutaneous DDCS. When the infusion was terminated, depth of anesthesia was increased and DDCS and surrounding tissue were explanted and immediately immersed in 10% buffered formalin for histological analysis. Tissue specimens were embedded in paraffin and 7-10 microns sections were prepared for H and E stains.

## insulin
Mesenteric DDCS
  Time at which blood insulin levels peaked post infusion: ≤ 5 min
Mesenteric and subcutaneous DDCS, 10 milliU/kg/min, measured at 5, 15, 30 min, not fasted, isoflurane anesthesia
  Blood glucose concentrations during insulin infusion: decreased in proportion to increasing insulin concentrations
Subcutaneous DDCS
  Time at which blood insulin levels peaked post infusion: ≤ 5 min
